Measurements as given in patent publication US20140212436A1.
Read-outs that look alike come from different tables or passages of the source.

Experiments:
[1] = molecular target: XENP12704, anti-IgE antibody containing human C3d fused to the C-terminus of Ckappa (human) (UniProt P01834); experiment: ELISA, CR2-Fc coated; the concentration is that of XENP12704
[2] = molecular target: recombinant human FcγRIIb protein (human) (UniProt P31994); experiment: Biacore
[3] = molecular target: human H131 FcγRIIa (human) (UniProt P12318); experiment: Biacore
human FcγRI (human) [4] = molecular target: human FcγRI (human) (UniProt P12314); experiment: Biacore
[5] = molecular target: human V158 FcγRIIIa (human) (UniProt P08637); experiment: Biacore
FcγRIIaR (human) = FcγRIIaR (human) (UniProt P12318); experiment: Biacore
[6] = molecular target: recombinant human FcγRIIb protein (human) (UniProt P31994); experiment: Biacore; remark: listed apart in the source
[7] = molecular target: human H131 FcγRIIa (human) (UniProt P12318); experiment: Biacore; remark: listed apart in the source
human FcγRI (human) [8] = molecular target: human FcγRI (human) (UniProt P12314); experiment: Biacore; remark: listed apart in the source
[9] = molecular target: human V158 FcγRIIIa (human) (UniProt P08637); experiment: Biacore; remark: listed apart in the source
FcγRIIIaF (human) = FcγRIIIaF (human) (UniProt P08637); experiment: Biacore
[10] = molecular target: recombinant human FcγRIIb protein (human) (UniProt P31994); experiment: Biacore SPR, antibody captured on protein A/G, FcγRIIb injected
[11] = molecular target: IgE (from a human IgE ELISA kit, Bethyl Laboratories) (human) (UniProt P01854); experiment: sandwich ELISA, antibody coated as capture; the concentration is that of IgE
IgE (from a human IgE ELISA kit, Bethyl Laboratories) (human), sequence (P01854 other isoform, or with tags, fused parts or gaps): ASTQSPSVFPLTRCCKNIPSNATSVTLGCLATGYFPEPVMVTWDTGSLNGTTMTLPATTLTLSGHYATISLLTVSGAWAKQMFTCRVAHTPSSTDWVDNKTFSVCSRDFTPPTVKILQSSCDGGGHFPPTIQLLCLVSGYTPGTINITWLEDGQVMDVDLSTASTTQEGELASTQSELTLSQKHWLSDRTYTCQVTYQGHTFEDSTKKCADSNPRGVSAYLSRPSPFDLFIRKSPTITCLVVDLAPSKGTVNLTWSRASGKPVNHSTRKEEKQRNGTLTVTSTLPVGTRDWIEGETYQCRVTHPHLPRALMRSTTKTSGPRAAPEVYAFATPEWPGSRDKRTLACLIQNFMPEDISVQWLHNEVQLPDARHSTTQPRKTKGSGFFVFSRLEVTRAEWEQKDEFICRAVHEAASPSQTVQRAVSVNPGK

FcγRIIIaF (human), sequence (P08637 17-208 limits assumed): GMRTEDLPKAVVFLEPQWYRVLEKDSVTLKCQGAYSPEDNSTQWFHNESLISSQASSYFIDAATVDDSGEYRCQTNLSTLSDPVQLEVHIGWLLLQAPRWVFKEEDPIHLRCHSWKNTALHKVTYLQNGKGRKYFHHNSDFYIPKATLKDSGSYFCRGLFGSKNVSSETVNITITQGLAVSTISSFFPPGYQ
human H131 FcγRIIa (human), sequence (P12318 other isoform, or with tags, fused parts or gaps limits assumed): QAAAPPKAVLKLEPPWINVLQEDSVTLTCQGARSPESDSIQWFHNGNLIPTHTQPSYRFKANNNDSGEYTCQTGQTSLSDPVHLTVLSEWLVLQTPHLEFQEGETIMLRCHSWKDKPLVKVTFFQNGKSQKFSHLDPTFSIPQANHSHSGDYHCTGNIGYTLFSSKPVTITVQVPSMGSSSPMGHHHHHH
recombinant human FcγRIIb protein (human), sequence (P31994 46-217 limits assumed): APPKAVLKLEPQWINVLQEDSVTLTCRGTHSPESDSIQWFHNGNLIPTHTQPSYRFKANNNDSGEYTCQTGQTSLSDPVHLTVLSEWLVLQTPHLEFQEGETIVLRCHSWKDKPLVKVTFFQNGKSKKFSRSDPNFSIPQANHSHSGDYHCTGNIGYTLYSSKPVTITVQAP
human V158 FcγRIIIa (human), sequence (P08637 other isoform, or with tags, fused parts or gaps limits assumed): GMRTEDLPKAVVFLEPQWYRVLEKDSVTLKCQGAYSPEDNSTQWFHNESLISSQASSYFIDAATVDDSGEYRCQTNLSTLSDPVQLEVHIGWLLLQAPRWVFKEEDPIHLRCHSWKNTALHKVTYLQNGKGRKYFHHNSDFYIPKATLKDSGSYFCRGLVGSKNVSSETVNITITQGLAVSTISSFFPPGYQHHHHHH
human FcγRI (human), sequence (P12314 16-288 limits assumed): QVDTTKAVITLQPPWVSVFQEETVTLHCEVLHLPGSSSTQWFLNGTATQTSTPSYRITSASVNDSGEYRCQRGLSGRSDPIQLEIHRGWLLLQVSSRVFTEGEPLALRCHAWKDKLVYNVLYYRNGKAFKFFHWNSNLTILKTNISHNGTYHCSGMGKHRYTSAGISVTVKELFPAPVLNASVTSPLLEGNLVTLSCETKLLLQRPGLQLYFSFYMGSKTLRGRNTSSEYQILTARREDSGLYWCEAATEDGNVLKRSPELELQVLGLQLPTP
FcγRIIaR (human), sequence (P12318 34-217 H167R limits assumed): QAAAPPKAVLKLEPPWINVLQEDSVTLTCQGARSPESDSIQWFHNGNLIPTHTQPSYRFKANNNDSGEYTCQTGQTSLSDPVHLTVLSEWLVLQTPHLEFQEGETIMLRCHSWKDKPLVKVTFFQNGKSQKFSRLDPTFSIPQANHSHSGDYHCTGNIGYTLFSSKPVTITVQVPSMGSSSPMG
XENP12562 (hSCR1-4 Fc fusion), sequence (P20023 21-273 limits assumed): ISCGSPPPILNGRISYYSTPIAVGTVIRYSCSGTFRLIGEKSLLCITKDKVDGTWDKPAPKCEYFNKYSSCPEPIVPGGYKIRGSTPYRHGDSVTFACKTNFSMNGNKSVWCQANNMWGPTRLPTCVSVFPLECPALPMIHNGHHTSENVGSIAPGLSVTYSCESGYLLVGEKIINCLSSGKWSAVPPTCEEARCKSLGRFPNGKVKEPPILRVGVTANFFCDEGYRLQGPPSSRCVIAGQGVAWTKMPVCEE
XENP12561 (hSCR1-2 Fc fusion), sequence (P20023 21-148 limits assumed): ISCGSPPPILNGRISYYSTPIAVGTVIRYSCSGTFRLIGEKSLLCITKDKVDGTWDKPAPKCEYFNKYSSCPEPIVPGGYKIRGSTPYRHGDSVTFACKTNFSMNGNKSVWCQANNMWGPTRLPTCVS

Row | Substance | Fold [2] | Kd [2] [nM] | Fold [3] | Kd [3] [nM] | Fold (human FcγRI (human) [4]) | Kd (human FcγRI (human) [4]) [nM] | Fold [5] | Kd [5] [nM] | Fold (FcγRIIaR (human)) | Kd (FcγRIIaR (human)) [nM] | also measured
1 | XENP12561 (hSCR1-2 Fc fusion) (from UniProt P20023 21-148) |  |  |  |  |  |  |  |  |  |  | EC50 (read off the curve) [1]: 0.02 µg/mL
2 | L234F/S267E (antibody) | 26.4 | 55.7 | 0.509 | 1270 | 0.661 | 0.498 | 0.0938 | 2040 | 20.7 | 41.6 | 
3 | anti-CD19 antibody HuAM4G7, IgG1 Fc variant S239D/S267E | 111 | 13.3 | 1.27 | 510 | 23.2 | 0.0142 | 3.74 | 51.2 | 120 | 7.16 | Fold [6]: 150; Kd [6]: 12 nM; Fold [7]: 1.2; Kd [7]: 700 nM; Fold (human FcγRI (human) [8]): 1.6; Kd (human FcγRI (human) [8]): 0.17 nM; Fold [9]: 3; Kd [9]: 62 nM; Fold (FcγRIIIaF (human)): 2.62; Kd (FcγRIIIaF (human)): 516 nM
4 | anti-CD19 antibody HuAM4G7, IgG1 Fc variant S267E/L328F | 242 | 6.06 | 0.7 | 923 | 1.5 | 0.22 | 0.038 | 5040 | 275 | 3.12 | Fold [6]: 429; Kd [6]: 4.2 nM; Fold [7]: 0.97; Kd [7]: 880 nM; Fold (human FcγRI (human) [8]): 1.2; Kd (human FcγRI (human) [8]): 0.23 nM
5 | G236S (antibody) | 1.02 | 1440 | 3.76 | 172 | 0.0268 | 12.3 | 0.00367 | 52200 | 2.33 | 369 | 
6 | L235Y/S239D/S267E (antibody) | 116 | 12.6 | 1.05 | 617 | 1.07 | 0.307 | 2.6 | 73.5 | 98.9 | 8.68 | 
7 | L328F (antibody) |  | 541 |  |  |  | 0.452 |  | 58400 |  | 166 | Kd (FcγRIIIaF (human)): 5110 nM
8 | S267E/A327E (antibody) | 30.9 | 47.5 | 2.66 | 243 | 2.3 | 0.143 | 0.00894 | 21400 | 29.3 | 29.3 | 
9 | L235I (antibody) | 0.908 | 1620 | 0.181 | 3580 | 0.0197 | 16.7 | 0.903 | 212 | 0.666 | 1290 | 
10 | S267E (antibody) | 20.4 | 71.9 | 0.753 | 859 | 2.81 | 0.117 | 0.381 | 503 | 29.5 | 29.1 | Fold [6]: 30; Kd [6]: 60 nM; Fold [7]: 0.89; Kd [7]: 960 nM; Fold (human FcγRI (human) [8]): 1.1; Kd (human FcγRI (human) [8]): 0.26 nM; Fold [9]: 0.29; Kd [9]: 690 nM
11 | L235Y/S267E/H268E (antibody) | 69.9 | 21 | 0.157 | 4130 | 0.0103 | 32.1 | 0.428 | 447 | 48.2 | 17.8 | 
12 | anti-CD19 antibody HuAM4G7, IgG1 Fc variant S239D/I332E |  | 101 |  | 163 |  | 0.0374 |  |  |  | 68.6 | Kd [6]: 88 nM; Kd [7]: 220 nM; Kd (human FcγRI (human) [8]): 0.14 nM; Kd [9]: 6.8 nM; Kd (FcγRIIIaF (human)): 28.2 nM
13 | S239D (antibody) | 3.6 | 408 |  | 590 | 3.53 | 0.0934 | 8.14 | 23.5 | 3.73 | 230 | Fold (FcγRIIIaF (human)): 6.32; Kd (FcγRIIIaF (human)): 214 nM
14 | V266M/S267E (antibody) | 29.2 | 50.2 | 10.9 | 59.2 | 1.98 | 0.166 | 0.0448 | 4270 | 30.7 | 28 | 
15 | anti-CD19 antibody HuAM4G7, WT (native) IgG1 Fc |  | 1470 |  | 646 |  | 0.329 |  | 191 | 1 | 859 | Kd [10]: 1800 nM; Fold [6]: 1; Fold [7]: 1; Kd [7]: 850 nM; Fold (human FcγRI (human) [8]): 1; Kd (human FcγRI (human) [8]): 0.28 nM; Fold [9]: 1; Kd [9]: 200 nM
16 | L235Y (antibody) | 1.05 | 1400 | 1.35 | 479 | 0.00232 | 142 | 0.504 | 380 | 1.28 | 669 | 
17 | anti-CD19 antibody HuAM4G7, WT (native) IgG1 Fc (antibody; other documents disagree on this pair) |  |  |  |  |  |  |  |  |  |  | Fold (FcγRIIIaF (human)): 1; Kd (FcγRIIIaF (human)): 1350 nM
18 | V266M (antibody) | 1.91 | 770 | 1.17 | 553 | 1.25 | 0.264 | 0.547 | 350 | 3.13 | 274 | 
19 | XENP12562 (hSCR1-4 Fc fusion) (from UniProt P20023 21-273) |  |  |  |  |  |  |  |  |  |  | EC50 (read off the curve) [1]: 0.003 µg/mL
20 | S267E/H268E (antibody) | 40.6 | 36.1 | 0.765 | 845 | 3.52 | 0.0935 | 3.15 | 60.8 | 41.7 | 20.6 | 
21 | anti-CD19 antibody HuAM4G7, IgG1 Fc variant G236D/S267E |  | 26.6 |  | 2730 |  | 3.71 |  | 579 |  |  | Kd [6]: 25 nM; Kd [7]: 2200 nM; Kd (human FcγRI (human) [8]): 3.2 nM
22 | L235A (antibody) | 0.351 | 4180 | 0.0486 | 13300 | 0.0179 | 18.4 | 0.314 | 609 | 0.166 | 5180 | 
23 | A327D (antibody) | 1.33 | 1100 | 0.733 | 882 | 2.06 | 0.16 | 0.398 | 481 | 1.6 | 536 | 
24 | S239D/S267E/L328F (antibody) | 428 | 3.43 | 1.71 | 378 | 1.45 | 0.227 | 0.216 | 887 | 416 | 2.06 | 
25 | MaE11_IgG1_G236R/L328R (antibody) |  |  |  |  |  |  |  |  |  |  | EC50 (read off the curve) [11]: 0.05 µg/mL
